Laboratory results as given in KR20200098338A (dated 2020).

Columns and labels:
[1] = biological target: T1, 인간 BAG2 단백질 (human BAG2 protein) (human, UniProt O95816 2-211); assay: immunoblot selection of hybridoma clones
T1 construct: also called BAG2 폴리펩티드

[2] = biological target: T2, GST-Bag Full (GST-융합 전장 BAG2 폴리펩티드) (human, UniProt O95816 1-211); assay: immunoblot of lysate of HEK293T cells transfected with GST-Bag Full vector, signal at about 50 kDa
T2 construct: Expressed in HEK293T cells, detected at about 50 kDa in lysate by immunoblot; also called GST-Bag Full 벡터 발현 산물; not shown: GST tag, about 26 kDa, from pcDNA3.1+/GST vector (NovoPro Bioscience)

[3] = biological target: T1, 인간 BAG2 단백질 (human BAG2 protein); assay: immunoblot of MDA-MB-231 cell lysate, antibody from hybridoma culture at 1/2000

T1 sequence (O95816 2-211 limits assumed): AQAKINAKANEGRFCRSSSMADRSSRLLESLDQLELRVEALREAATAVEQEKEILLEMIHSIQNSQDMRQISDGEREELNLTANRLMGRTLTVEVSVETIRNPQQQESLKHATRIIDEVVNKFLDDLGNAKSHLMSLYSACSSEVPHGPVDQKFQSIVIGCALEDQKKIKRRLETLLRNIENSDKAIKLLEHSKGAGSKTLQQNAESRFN
T2 sequence (O95816 whole entry): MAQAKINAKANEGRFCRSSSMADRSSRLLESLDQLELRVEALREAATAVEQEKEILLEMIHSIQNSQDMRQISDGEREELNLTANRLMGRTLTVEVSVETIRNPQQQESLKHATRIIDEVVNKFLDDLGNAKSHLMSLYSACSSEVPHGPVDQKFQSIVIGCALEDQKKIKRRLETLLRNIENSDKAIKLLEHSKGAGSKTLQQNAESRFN

| binding result [1] | binding result [2] | binding result [3] | Binder |
| --- | --- | --- | --- |
| binds | binds | – | 2A11 항체 (항-BAG2 단일클론성 항체) (antibody, V domains shown, Mouse hybridoma monoclonal antibody) VH: QVQLQQPGAELVRPGASVTLSCKASGYTFTDYEMHWVKQTPVHGLEWIGIIDPETGGTAYNQKFKGKATLTADKSSSTAYMELRSLTSEDSAVYYCTRGKFYYSGRDYAMDYWGQGTSVTVSS VL: DVLMTQTPLSLPVSLGDQASISCRSSQSIVHSNGNTYLEWYLQKPGQSPKLLIYKVSNRFSGVPDRFSGSGSGTDFTLKISRVEAEDLGVYFCFQGSQVPPTFGGGTKLEIK |
| – | binds | binds | 4C2 항체 (항-BAG2 단일클론성 항체) (antibody, V domains shown, Mouse hybridoma monoclonal antibody) VH: QVQLQQPGAELVRPGASVTLSCKASGYTFTDYEMHWVKQTPVHGLEWIGIIDPETGATAYNQKFKGKATLTADKSSSTAYMELRSLTSEDSAVYYCTRGKFYYSGRDYAMDYWGQGTSVTVSS VL: DVLMTQTPLSLPVSLGDQASISCRSSQSIVHSNGNTYLEWYLQKPGQSPKLLFYKVSNRFSGVPDRFSGSGSGTDFTLKISRVEAEDLGVYFCFQGSQVPPTFGGGTKLEIK |
| – | binds | binds | 8C4 항체 (항-BAG2 단일클론성 항체) (antibody, V domains shown, Mouse hybridoma monoclonal antibody) VH: QVQLQQPGAELVRPGASVTLSCKASGYTFTDYEMHWVKQTPVHGLEWIGIIDPETAGTAYNQKFKGKATLTADKSSSTAYMELRSLTSEDSAVYYCTRGKFYYSGRDYAMDYWGQGTSVTVSS VL: DVLMTQTPLSLPVSLGDQASISCRSSQSIVHSNGNTYLEWYLQKPGQSPKLLFYKVSNRFSGVPDRFSGSGSGTDFTLKISRVEAEDLGVYFCFQGSQVPPTFGGGTKLEIK |
| binds | binds | – | 3F12 항체 (항-BAG2 단일클론성 항체) (antibody, V domains shown, Mouse hybridoma monoclonal antibody) VH: QVQLQESGPDLVKPSQSLSLTCTVTGYSITSGYSWHWIRQFPGNKLEWMGYIYYRGSTNYNPSLKSRISITRDTSKNQFFLLLKSVTTEDTATYYCAREAYWGQGTLVTVSA VL: not shown |
| – | binds | binds | 3G8 항체 (항-BAG2 단일클론성 항체) (antibody, V domains shown, Mouse hybridoma monoclonal antibody) VH: QIQLVQSGPELKKPGETVKISCKASGYSFTKYGMNWVKQAPGKDIKWMGWINTNTGEATYGEEVKGRFAFSLETSASTAYLQINNLKNEDTATYFCARLGLRYLDYWGQGTTLTVSS VL: DIVMTQSPASLVVSLGQRATISCRASKSVSTSDYSYMHWYQQKPGQPPKVLIYLASNLESGVPARFSGSGSGTDFTLNIHPVEEEDAATYYCQHNRELPPTFGAGTKLELK |
